± gives the standard deviation of the averaged measurements.
Test system: Saccharomyces cerevisiae
Experiment: protein stability index of tFT-peptide fusion (C-terminal peptide) (PSI (0-1 scale)); higher = more stable (slower turnover)
Details: genetic background: wild type; temperature: 30 C
Experimental: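 Multiplexed protein stability (MPS) profiling in S. cerevisiae. Random 12-aa peptides (tFT-X12 library) are fused to the C-terminus of a sfGFP-mCherry tandem fluorescent timer, after mCherry and a GGGS linker. Cells are FACS-sorted into 8 mCherry/sfGFP bins and deep-sequenced. The protein stability index (PSI) is the read-weighted bin average, scaled from 0 (unstable) to 1 (stable). Only peptides with >10 reads are reported; cells were grown at 30 °C in SC-His with glucose.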
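Also: PSI is a weighted mean of sequencing reads over stability bins, variants kept only with over 10 reads, mCherry proximal and sfGFP distal, peptide attached via GGGS linker.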

Sequence	protein stability index
ARCSDPSAATHT	0.706 ± 0.038
AREVGGRAGRRE	0.661 ± 0.012
ARFFPLPIPPRS	0.758 ± 0.078
ARGFSAGAIGVG	0.646 ± 0.1
ARGGGRSEGGEG	0.7151 ± 0.0024
ARIGVQRFSGVV	0.708 ± 0.019
ARLHMSLFRPPA	0.646 ± 0.011
ARLSLEGASRGE	0.653 ± 0.023
ARMRQNDKHDGS	0.662 ± 0.011
ARPDTSPPGTSL	0.664 ± 0.044
ARPFCPLYTPRG	0.686 ± 0.043
ARQPMHYRITGC	0.644 ± 0.063
ARRYVPPRWGSL	0.679 ± 0.065
ARSDRLPNILPY	0.679 ± 0.071
ARSDSPRATQAN	0.697 ± 0.06
ARSFALLGCRRS	0.677 ± 0.042
ARTGRELVLPKG	0.663 ± 0.0089
ARWQALTHLIVL	0.6151 ± 0.0051
ASCAPGDVTQVG	0.718 ± 0.038
ASCGTAGPCVPF	0.708 ± 0.019
ASCHFSILPTRL	0.67 ± 0.032
ASCLNYSSNRRP	0.617 ± 0.064
ASCRRGGAGCLR	0.735 ± 0.043
ASFLRPQMSLPF	0.618 ± 0.0095
ASFRPDGYTYSV	0.622 ± 0.071
ASGAPGRGRGVV	0.697 ± 0.083

Sequence	protein stability index
ASGLVVDYTLIA	0.671 ± 0.025
ASGRARVIGVCR	0.704 ± 0.029
ASHDIFWAGSRE	0.766 ± 0.092
ASLFFSLCSLSE	0.694 ± 0.011
ASLPPPFTMLLL	0.686 ± 0.051
ASLSKLTLKVTV	0.586 ± 0.057
ASLTPFFLCSIF	0.649 ± 0.0073
ASPALPAPRSAP	0.704 ± 0.057
ASPRLTGCPNPR	0.6863 ± 0.002
ASRIGHIGQPVI	0.6889 ± 0.00017
ASRRMGGHNALS	0.705 ± 0.013
ASSPSPPTPPPP	0.647 ± 0.056
ASSTSSPPPLPP	0.666 ± 0.032
ASTLFDCHVLGA	0.697 ± 0.039
ASVVEVSSLSLL	0.629 ± 0.052
ATIRNSMPYHFN	0.646 ± 0.044
ATLGTVTLAFSV	0.634 ± 0.044
ATLSSVSSGSSF	0.647 ± 0.12
ATNCERLHNPHL	0.727 ± 0.0034
ATPTQADRMPVT	0.721 ± 0.1
ATSFHALPVFTS	0.644 ± 0.053
ATSPTSGGIHTA	0.662 ± 0.0092
ATYPVPMPPTPQ	0.734 ± 0.037
AVAFELCDLTRG	0.702 ± 0.038
AVCSLTLGFGWW	0.755 ± 0.034
AVDSGSLERIRM	0.69037 ± 0.00042

Sequence	protein stability index
AVFGLEAVMRRG	0.753 ± 0.15
AVFQEIPFGIPP	0.696 ± 0.073
AVGGVFVSSGGL	0.691 ± 0.013
AVGTAPVFLWFG	0.679 ± 0.0083
AVISDVSLKPNF	0.673 ± 0.082
AVISSSFFGSSY	0.721 ± 0.076
AVLPFFPCFSAF	0.69 ± 0.038
AVLSVGHWGSGL	0.69 ± 0.028
AVSESSRRTQFF	0.7039 ± 0.0025
AVSLTLCISSIS	0.5869 ± 0.0052
AVVRVSLPSTVV	0.667 ± 0.059
AVYIEFLYPRRL	0.644 ± 0.039
AWEWMTVQVVRG	0.586 ± 0.012
AWGGGEWGGCGR	0.772 ± 0.027
AWGGSWWSLGGM	0.6715 ± 0.0056
AWGSVVTFLGLR	0.737 ± 0.054
AWGVCRPGGRGG	0.681 ± 0.035
AWMSRTRSKNLR	0.717 ± 0.048
AWPGPKMCWVVK	0.6294 ± 0.0023
AWRVVRIFFCGG	0.72 ± 0.15
AWRWGVGVGSGS	0.735 ± 0.17
AYRISCAGHIMA	0.684 ± 0.053
AYRRPKFLEGTF	0.694 ± 0.1
AYTSVSVDHLIH	0.673 ± 0.0069
CAGVGGGLVSLG	0.688 ± 0.082
CASSFSFFRFPP	0.586 ± 0.019

Sequence	protein stability index
CAVLGGGGVWGA	0.596 ± 0.035
CAVSFPLCLLPP	0.6439 ± 0.0036
CCARRWLNFEYW	0.72 ± 0.032
CCGQRYACVFQT	0.651 ± 0.029
CCKMITYKEGRE	0.692 ± 0.06
CCLGVFFGVGGL	0.772 ± 0.12
CCLNHIFECLTL	0.7012 ± 0.0066
CCLSCGRPTLGS	0.731 ± 0.067
CCRICCCLLGTH	0.658 ± 0.032
CDGGCSWGGLMG	0.795 ± 0.071
CDRNLSYGAGSV	0.705 ± 0.049
CEPPRPGLLPLF	0.724 ± 0.016
CESRSIVSFVLL	0.73 ± 0.11
CFFLVLPPFPLF	0.518 ± 0.028
CFGFVRSLGWWG	0.6486 ± 0.0027
CFMGCAKRVTLI	0.561 ± 0.039
CFRTVPPPALTR	0.7199 ± 0.002
CGAGGARGSVAR	0.693 ± 0.026
CGALKGKKPYGV	0.715 ± 0.057
CGALSVLGWEPF	0.71615 ± 0.0001
CGCFLSELATFC	0.652 ± 0.059
CGCVSWYYGALD	0.628 ± 0.0073
CGEALGVSWMTL	0.684 ± 0.0038
CGEWSWAGVGVR	0.702 ± 0.032
CGFCVCWSGVAL	0.72 ± 0.045
CGFFSGLLYFSL	0.586 ± 0.028

Sequence	protein stability index
CGGAQRREGGLG	0.649 ± 0.03
CGLASHLCSGRG	0.66 ± 0.081
CGLRGAGVLCWG	0.483 ± 0.051
CGLRRFTGLAWS	0.6372 ± 0.00093
CGLRVAGVLCWG	0.465 ± 0.05
CGPLPLVRSLLP	0.7031 ± 0.0023
CGRCVRGGRPWG	0.577 ± 0.012
CGRGVWAVVGVP	0.715 ± 0.028
CGRSGALGPWGG	0.673 ± 0.0053
CGSAIGEARDLG	0.621 ± 0.021
CGSTLLPESYIQ	0.645 ± 0.052
CGTVVISGIVWR	0.647 ± 0.04
CGVHESAIQPNL	0.605 ± 0.0081
CGWGVMDAVGSR	0.685 ± 0.019
CHILGSINKIKE	0.7 ± 0.039
CHRLGRTTGRIR	0.692 ± 0.026
CIGVRFVNAHEG	0.771 ± 0.1
CILPVLRGMSPA	0.616 ± 0.011
CIQRYSTAHPYH	0.679 ± 0.06
CIVSARCWRSPY	0.609 ± 0.0072
CKQIESRLLEGQ	0.64 ± 0.024
CLAPPTFAPSSL	0.752 ± 0.081
CLCLGGIWIVGG	0.63 ± 0.027
CLDRRCTSRGCI	0.717 ± 0.03
CLFSFGPLAVNI	0.6 ± 0.0079
CLGLVSLSGGAR	0.712 ± 0.073

Sequence	protein stability index
CLGRDVENRDAW	0.785 ± 0.078
CLGSGGRVSRGA	0.6715 ± 0.0022
CLHLDQAACVGS	0.695 ± 0.1
CLIGHFFSVIFY	0.5239 ± 0.0051
CLLLPPLATFPR	0.695 ± 0.017
CLLSRGLTVSYS	0.626 ± 0.012
CLPGVVRGLSTM	0.703 ± 0.036
CLPLPAPLLAHL	0.666 ± 0.16
CLPRFLGLGGRV	0.68 ± 0.072
CLRPGAPESSIP	0.673 ± 0.1
CLRRGGAGDGAS	0.678 ± 0.011
CLSPAPLPPFFY	0.6724 ± 0.0018
CLSYSVCPFWEA	0.807 ± 0.0087
CLTTVCHRRVRC	0.655 ± 0.075
CLVGSLTDIAWL	0.756 ± 0.028
CLVSGGRVSRGA	0.6578 ± 0.0019
CLVWGGCYWDVG	0.6019 ± 0.0015
CLWSDQLFFYFG	0.734 ± 0.025
CLYLLFGLLHVG	0.545 ± 0.02
CMFATFLFVPPL	0.591 ± 0.014
CPDFSSSLTFFL	0.706 ± 0.014
CPFPSPTPPPPC	0.726 ± 0.095
CPGTSLVLPPLL	0.688 ± 0.019
CPIASSRHSVGL	0.823 ± 0.12
CPIKSLLPGSFA	0.693 ± 0.03

Reference: the supplement of paper PMC10724198
